# Source: patent publication US20080014599A1 (published 2008)
# B1: 6× His hRTP801 N-fragment (other)
# chain: MPSLWDRFSSSSTSSSPSSLPRTPTPDRPPRSAWGSATREEGFDRSTSLESSDCESLDSSNSGFGPEEDTAYLDGVSLPDFELLSDPE
# notes: not shown: 6× His tag
# B2: FLAG-(N-C2)hRTP801 (other)
# chain: MPSLWDRFSSSSTSSSPSSLPRTPTPDRPPRSAWGSATREEGFDRSTSLESSDCESLDSSNSGFGPEEDTAYLDGVSLPDFELLSDPEDEHLCANLMQLLQESLAQARLGSRRPARLLMPSQLVSQVGKELLRLAYSEPCGLRGALLDVCVEQGKSCHSVGQLALDPSLVPTFQLTLVLRLDSRLWPKIQGLFSS
# notes: also called hRTP801 N-C2 fragment; hRTP801 N-C2 mutant; not shown: FLAG tag
# B3: FLAG-hRTP801 (other)
# chain: MPSLWDRFSSSSTSSSPSSLPRTPTPDRPPRSAWGSATREEGFDRSTSLESSDCESLDSSNSGFGPEEDTAYLDGVSLPDFELLSDPEDEHLCANLMQLLQESLAQARLGSRRPARLLMPSQLVSQVGKELLRLAYSEPCGLRGALLDVCVEQGKSCHSVGQLALDPSLVPTFQLTLVLRLDSRLWPKIQGLFSSANSPFLPGFSQSLTLSTGFRVIKKKLYSSEQLLIEEC
# notes: Full length hRTP801 with FLAG tag, expressed in transfected 293T cells; also called FLAG-full length hRTP801; FLAG-tagged hRTP801; not shown: FLAG tag
# B4: FLAG-hRTP801-L (REDD2) (other)
# chain: MVATGSLSSKNPASISELLDCGYHPESLLSDFDYWDYVVPEPNLNEVIFEESTCQNLVKMLENCLSKSKQTKLGCSKVLVPEKLTQRIAQDVLRLSSTEPCGLRGCVMHVNLEIENVCKKLDRIVCDSSVVPTFELTLVFKQENCSWTSFRDFFFSRGRFSSGFRRTLILSSGFRLVKKKLYSLIGTTVIEGS
# notes: Expressed in transfected 293T cells; also called FLAG-RTP801L; not shown: FLAG tag
# What was measured:
# TSC2 [1] = molecular target: T1, TSC2 (human, UniProt P49815 1-1807, limits assumed); experiment: in vitro pull-down from extract with 6× His baits (FIG. 13)
# T1 construct: Untagged TSC2 in 293T cell extracts, endogenous or from a transfected TSC2 cDNA; Some extracts of the pull-downs may hold HA-TSC2; also called tuberin; endogenous TSC2
# T1 sequence (P49815 other isoform, or with tags, fused parts or gaps limits assumed): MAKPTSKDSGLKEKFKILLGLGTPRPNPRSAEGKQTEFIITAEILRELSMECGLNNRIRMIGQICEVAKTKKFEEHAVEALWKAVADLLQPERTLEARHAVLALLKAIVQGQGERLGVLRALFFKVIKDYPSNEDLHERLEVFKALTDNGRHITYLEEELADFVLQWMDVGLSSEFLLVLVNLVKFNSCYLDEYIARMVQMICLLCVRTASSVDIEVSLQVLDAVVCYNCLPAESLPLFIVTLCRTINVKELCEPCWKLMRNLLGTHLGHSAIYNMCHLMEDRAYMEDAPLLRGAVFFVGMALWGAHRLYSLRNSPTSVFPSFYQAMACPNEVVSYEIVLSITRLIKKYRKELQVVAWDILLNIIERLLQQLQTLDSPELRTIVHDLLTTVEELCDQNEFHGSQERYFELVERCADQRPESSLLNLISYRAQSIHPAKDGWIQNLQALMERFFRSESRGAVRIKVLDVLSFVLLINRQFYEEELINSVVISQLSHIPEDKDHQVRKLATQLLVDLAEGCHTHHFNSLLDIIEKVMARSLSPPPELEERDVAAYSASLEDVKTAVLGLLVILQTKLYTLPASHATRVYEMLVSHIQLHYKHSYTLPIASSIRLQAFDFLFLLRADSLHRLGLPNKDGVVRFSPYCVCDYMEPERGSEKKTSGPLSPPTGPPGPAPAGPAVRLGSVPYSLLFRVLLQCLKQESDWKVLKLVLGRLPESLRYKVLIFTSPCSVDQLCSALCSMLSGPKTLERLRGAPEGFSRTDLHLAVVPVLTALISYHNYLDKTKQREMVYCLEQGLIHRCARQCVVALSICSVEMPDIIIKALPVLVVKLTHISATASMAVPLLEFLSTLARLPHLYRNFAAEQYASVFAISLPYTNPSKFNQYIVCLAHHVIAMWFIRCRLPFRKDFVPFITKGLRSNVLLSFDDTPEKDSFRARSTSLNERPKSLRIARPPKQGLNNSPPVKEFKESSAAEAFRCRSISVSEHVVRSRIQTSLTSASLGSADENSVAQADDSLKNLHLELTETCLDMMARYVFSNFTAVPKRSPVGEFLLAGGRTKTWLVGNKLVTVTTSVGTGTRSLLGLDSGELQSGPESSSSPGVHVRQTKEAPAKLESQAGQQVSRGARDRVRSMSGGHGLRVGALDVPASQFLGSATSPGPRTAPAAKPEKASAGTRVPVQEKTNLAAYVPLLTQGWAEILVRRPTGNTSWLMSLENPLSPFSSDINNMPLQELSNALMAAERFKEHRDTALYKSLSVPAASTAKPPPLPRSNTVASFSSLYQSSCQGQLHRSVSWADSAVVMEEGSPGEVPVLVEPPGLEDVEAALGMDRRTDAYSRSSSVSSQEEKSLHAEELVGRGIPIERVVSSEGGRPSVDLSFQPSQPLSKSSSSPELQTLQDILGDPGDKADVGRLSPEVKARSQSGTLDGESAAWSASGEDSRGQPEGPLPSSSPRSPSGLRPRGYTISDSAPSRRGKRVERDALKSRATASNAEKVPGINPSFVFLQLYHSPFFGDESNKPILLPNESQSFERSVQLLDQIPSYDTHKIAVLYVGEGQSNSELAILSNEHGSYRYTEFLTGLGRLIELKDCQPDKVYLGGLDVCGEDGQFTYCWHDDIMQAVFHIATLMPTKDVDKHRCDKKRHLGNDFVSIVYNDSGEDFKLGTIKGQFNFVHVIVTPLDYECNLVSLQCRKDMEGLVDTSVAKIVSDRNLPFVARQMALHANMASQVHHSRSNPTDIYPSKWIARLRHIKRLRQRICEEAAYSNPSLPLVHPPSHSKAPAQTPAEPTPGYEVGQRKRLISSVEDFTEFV
# [2] = molecular target: T2, HA-SV5-full length hRTP801 (human, UniProt Q9NX09 1-232); experiment: co-IP with M2 anti-FLAG resin from 293T HEK extracts, immunoblot (FIG. 21)
# T2 construct: Full length, expressed in transfected 293T HEK cells; also called HA-SV5-hRTP801; HA-full length hRTP801; not shown: HA and SV5 tags
# T2 sequence: B3 chain
# Experimental: 293T HEK cells were co-transfected with a plasmid containing cDNA of HA-SV5-full length hRTP801 (“Prey”) as well as plasmid containing cDNA of one of the following: FLAG-full length hRTP801, FLAG-(C) hRTP801, FLAG-(N-C1) hRTP801, FLAG-(N-C1) hRTP801, FLAG-(N-C2)hRTP801 and FLAG-(C3) hRTP801. Forty-eight hours after transfection, cells were treated with 150 uM cobalt chloride for 18 hrs to mimick hypoxic stress conditions. The next day, cytosolic extracts were made by mechanic lysis under hypotonic conditions. FLAG-tagged bait proteins were immunoprecipitated with M2 anti-FLAG resin (Sigma). Following extensive washing, immunoprecipitated material was analyzed by immunblotting with either anti-hRTP801 polyclonal antibodies (proprietary) or with anti-SV5 polyclonal antibodies (AbCam).
# HA-tagged TSC2 (HA-TSC2) = molecular target: T3, HA-tagged TSC2 (HA-TSC2) (human, UniProt P49815 1-1807); experiment: co-IP with anti-FLAG from transfected 293T post-nuclear supernatant (FIG. 25)
# T3 construct: Expressed in transfected 293T cells; also called full length HA-tagged TSC2; not shown: HA tag
# T3 sequence (P49815 other isoform, or with tags, fused parts or gaps limits assumed): as above
# Experimental: TSC2 region that binds hRTP801 (FIG. 25). Human TSC2 HA-tagged “N” and “C” fragments (FIG. 25, upper panel) as well as full length HA-tagged TSC2 were transfected into 293T cells along with FLAG-hRTP801 or with empty vector. Forty-eight hours after transfection, the cells were treated with CoCl₂ for overnight. Cells were harvested and post-nuclear supernatant was prepared and used for IP with anti-FLAG antibodies. […] Similar results are achieved with RTP801L
# [3] = molecular target: T4, HA-tagged TSC2 “N” fragment (a.a. 2-935) (human, UniProt P49815 2-935); experiment: co-IP with anti-FLAG, anti-HA blot (FIG. 17)
# T4 construct: Printed as a.a; also called HA-“N” fragment of TSC2; not shown: HA tag
# T4 sequence (P49815 other isoform, or with tags, fused parts or gaps): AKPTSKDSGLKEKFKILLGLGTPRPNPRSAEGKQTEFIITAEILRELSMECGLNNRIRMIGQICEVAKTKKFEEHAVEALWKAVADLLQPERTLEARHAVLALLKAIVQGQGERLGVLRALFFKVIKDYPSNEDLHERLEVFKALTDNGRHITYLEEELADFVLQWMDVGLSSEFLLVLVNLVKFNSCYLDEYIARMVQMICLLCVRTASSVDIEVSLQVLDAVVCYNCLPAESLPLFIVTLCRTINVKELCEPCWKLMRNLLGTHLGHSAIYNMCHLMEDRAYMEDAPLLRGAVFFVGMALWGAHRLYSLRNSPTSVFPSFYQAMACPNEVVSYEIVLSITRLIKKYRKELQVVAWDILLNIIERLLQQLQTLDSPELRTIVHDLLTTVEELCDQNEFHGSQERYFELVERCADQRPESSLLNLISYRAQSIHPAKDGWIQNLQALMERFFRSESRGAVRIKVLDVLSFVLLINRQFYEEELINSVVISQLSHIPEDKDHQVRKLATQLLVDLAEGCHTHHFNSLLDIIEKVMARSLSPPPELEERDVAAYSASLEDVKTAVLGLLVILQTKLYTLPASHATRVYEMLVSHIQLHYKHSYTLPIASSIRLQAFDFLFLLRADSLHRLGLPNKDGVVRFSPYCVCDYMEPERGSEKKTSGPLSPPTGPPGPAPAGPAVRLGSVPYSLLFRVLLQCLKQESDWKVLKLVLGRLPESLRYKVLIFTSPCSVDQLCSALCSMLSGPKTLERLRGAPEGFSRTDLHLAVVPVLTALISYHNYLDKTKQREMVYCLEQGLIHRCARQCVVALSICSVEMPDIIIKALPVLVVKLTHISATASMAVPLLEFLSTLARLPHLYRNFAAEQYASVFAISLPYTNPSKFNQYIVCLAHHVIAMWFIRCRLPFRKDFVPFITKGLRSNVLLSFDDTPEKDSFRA
# Experimental: Cytosolic extracts were prepared and IP was done using anti-FLAG antibodies. Analysis of the immnocomplexes was done with anti-HA.
# TSC2 [4] = molecular target: T1, TSC2; experiment: co-IP with anti-FLAG from 293T extracts (FIG. 34)
# Experimental: Description: 293T cells were transiently transfected with either empty plasmid or with plasmid containing FLAG-hRTP801 or FLAG-hRTP801-L (REDD2) cDNAs. 48 hrs. post-transfection, cobalt chloride (150 uM) was added (or omitted) for another 24 hrs. Cytosolic extracts prepared and IP was done using anti-FLAG antibodies. Alternatively, 293T cells were transiently transfected with plasmid containing FLAG-hRTP801 cDNA and plasmid containing TSC1 or TSC2 cDNAs or both. 48 hrs. post transfection, cobalt chloride (150 uM) was added for another 24 hrs. Cytosolic extracts prepared and IP was done using anti-TSC1, anti-TSC2 or normal rabbit IgG (NRIgG) antibodies. Alternatively, 293T cells were transiently transfected with either empty plasmid,plasmid containing FLAG-hRTP801 cDNA and plasmids containing either TSC1 and/or TSC2 cDNAs. 48 hrs. post transfection, cobalt chloride (150 uM) was added for another 24 hrs. Cytosolic extracts prepared and IP was done using anti-FLAG antibodies.
binder,measurement,setting,value
B1,binding result,TSC2 [1],no binding
B2,binding result,[2],binds
B3,binding result,HA-tagged TSC2 (HA-TSC2),binds
same,binding result,[3],binds
same,binding result,TSC2 [4],binds
B4,binding result,TSC2 [4],binds
